Test results from the supplement of paper PMC5998384.

Test system: HeLa Kyoto
Experiment: thermal stability score vs G1/S (z-score of summed log2 fold changes over temperatures); higher = more thermally stable than in G1/S
[1] = cell cycle stage: early G1 (4.5 h after nocodazole release)
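Also: synchronized HeLa Kyoto cells, proteins quantified by TMT10plex mass spectrometry, three biological replicates, mitosis taken 0.5 h after nocodazole release, G1/S directly after double thymidine block.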

| Sequence | thermal stability score [1] | thermal stability score (cell cycle stage: mitosis) |
| --- | --- | --- |
| MWAFSELPMPLLINLIVSLLGFVATVTLIPAFRGHFIAARLCGQDLNKTSRQQIPESQGVISGAVFLIILFCFIPFPFLNCFVKEQCKAFPHHEFVALIGALLAICCMIFLGFADDVLNLRWRHKLLLPTAASLPLLMVYFTNFGNTTIVVPKPFRPILGLHLDLGILYYVYMGLLAVFCTNAINILAGINGLEAGQSLVISASIIVFNLVELEGDCRDDHVFSLYFMIPFFFTTLGLLYHNWYPSRVFVGDTFCYFAGMTFAVVGILGHFSKTMLLFFMPQVFNFLYSLPQLLHIIPCPRHRIPRLNIKTGKLEMSYSKFKTKSLSFLGTFILKVAESLQLVTVHQSETEDGEFTECNNMTLINLLLKVLGPIHERNLTLLLLLLQILGSAITFSIRYQLVRLFYDV [DPAGT1] | -0.912 | -2.08 |
| MAKVSVLNVAVLENPSPFHSPFRFEISFECSEALADDLEWKIIYVGSAESEEFDQILDSVLVGPVPAGRHMFVFQADAPNPSLIPETDAVGVTVVLITCTYHGQEFIRVGYYVNNEYLNPELRENPPMKPDFSQLQRNILASNPRVTRFHINWDNNMDRLEAIETQDPSLGCGLPLNCTPIKGLGLPGCIPGLLPENSMDCI [ASF1B] | -3.88 | -1.16 |
| MGPEALSSLLLLLLVASGDADMKGHFDPAKCRYALGMQDRTIPDSDISASSSWSDSTAARHSRLESSDGDGAWCPAGSVFPKEEEYLQVDLQRLHLVALVGTQGRHAGGLGKEFSRSYRLRYSRDGRRWMGWKDRWGQEVISGNEDPEGVVLKDLGPPMVARLVRFYPRADRVMSVCLRVELYGCLWRDGLLSYTAPVGQTMYLSEAVYLNDSTYDGHTVGGLQYGGLGQLADGVVGLDDFRKSQELRVWPGYDYVGWSNHSFSSGYVEMEFEFDRLRAFQAMQVHCNNMHTLGARLPGGVECRFRRGPAMAWEGEPMRHNLGGNLGDPRARAVSVPLGGRVARFLQCRFLFAGPWLLFSEISFISDVVNNSSPALGGTFPPAPWWPPGPPPTNFSSLELEPRGQQPVAKAEGSPTAILIGCLVAIILLLLLIIALMLWRLHWRRLLSKAERRVLEEELTVHLSVPGDTILINNRPGPREPPPYQEPRPRGNPPHSAPCVPNGSALLLSNPAYRLLLATYARPPRGPGPPTPAWAKPTNTQAYSGDYMEPEKPGAPLLPPPPQNSVPHYAEADIVTLQGVTGGNTYAVPALPPGAVGDGPPRVDFPRSRLRFKEKLGEGQFGEVHLCEVDSPQDLVSLDFPLNVRKGHPLLVAVKILRPDATKNARNDFLKEVKIMSRLKDPNIIRLLGVCVQDDPLCMITDYMENGDLNQFLSAHQLEDKAAEGAPGDGQAAQGPTISYPMLLHVAAQIASGMRYLATLNFVHRDLATRNCLVGENFTIKIADFGMSRNLYAGDYYRVQGRAVLPIRWMAWECILMGKFTTASDVWAFGVTLWEVLMLCRAQPFGQLTDEQVIENAGEFFRDQGRQVYLSRPPACPQGLYELMLRCWSRESEQRPPFSQLHRFLAEDALNTV [DDR1] | 0.0856 | 0.38 |
| MAVPGCNKDSVRAGCKKCGYPGHLTFECRNFLRVDPKRDIVLDVSSTSSEDSDEENEELNKLQALQEKRINEEEEKKKEKSKEKIKLKKKRKRSYSSSSTEEDTSKQKKQKYQKKEKKKEKKSKSKKGKHHKKEKKKRKKEKHSSTPNSSEFSRK [SREK1IP1] | -0.6 | -4.29 |
| MLRCGGRGLLLGLAVAAAAVMAARLMGWWGPRAGFRLFIPEELSRYRGGPGDPGLYLALLGRVYDVSSGRRHYEPGSHYSGFAGRDASRAFVTGDCSEAGLVDDVSDLSAAEMLTLHNWLSFYEKNYVCVGRVTGRFYGEDGLPTPALTQVEAAITRGLEANKLQLQEKQTFPPCNAEWSSARGSRLWCSQKSGGVSRDWIGVPRKLYKPGAKEPRCVCVRTTGPPSGQMPDNPPHRNRGDLDHPNLAEYTGCPPLAITCSFPL [CYB5D2] | 0.86 | -0.244 |
| MRVLVGGGTGFIGTALTQLLNARGHEVTLVSRKPGPGRITWDELAASGLPSCDAAVNLAGENILNPLRRWNETFQKEVIGSRLETTQLLAKAITKAPQPPKAWVLVTGVAYYQPSLTAEYDEDSPGGDFDFFSNLVTKWEAAARLPGDSTRQVVVRSGVVLGRGGGAMGHMLLPFRLGLGGPIGSGHQFFPWIHIGDLAGILTHALEANHVHGVLNGVAPSSATNAEFAQTLGAALGRRAFIPLPSAVVQAVFGRQRAIMLLEGQKVIPQRTLATGYQYSFPELGAALKEIVA [SDR39U1] | -0.328 | -0.0339 |
